Assay results: PMC4475061
pKd: −log10 of the molar value.

Key:
[1] = molecular target: CHMP1A (positive-control partner of the Gal4-CHMP1B constructs in the two-hybrid assay); assay: yeast two-hybrid (β-galactosidase activity); conditions: parent: est. 0.71; read off a plot
[2] = molecular target: IST1 MIM1 peptide (residues 344–366), fluorescently labeled (human); assay: fluorescence polarisation; 250 pM Oregon Green 488-labeled IST1 peptides, twofold dilutions of ULK3 proteins; 25 mM Tris pH 7.2, 150 mM NaCl, 0.1 mg/mL BSA, 0.01% Tween-20, 1 mM DTT; 1:1 fit
[3] = molecular target: IST1 MIMs peptide (residues 316–366), fluorescently labeled (human); assay: as above

CHMP1B WT fused to the Gal4 DNA-binding domain (from UniProt Q7LBR1) T178R; A181R; E184R
response [1]: 0.89

ULK3 MIT2 (residues 359–449) (from UniProt Q6PHR2 359-449) (domain or fragment)
pKd [2]: 6.11

ULK3(MIT)2 (residues 277–449) (from UniProt Q6PHR2 277-449) (domain or fragment)
pKd [3]: 6.70

ULK3(MIT)2 M434D (from UniProt Q6PHR2 277-449) (domain or fragment)
fold reduction of binding against wild-type ULK3(MIT)2 [3]: > 100 fold

ULK3(MIT)2 V338D (from UniProt Q6PHR2 277-449) (domain or fragment)
fold reduction of binding against wild-type ULK3(MIT)2 [3]: < 2 fold
